Measured values taken from publication PMC2947466.
Substitutions are numbered along the chain they refer to. Numbers in names are those of the source. One block for each binder: values may come before it.

Target: GST-Ist1-CTR (residues 296-335) (human)
Experiment: SPR

Kd: 4.6 µM
B1: spastin MIT domain, purified (domain or fragment)
chain: HKQAFEYISIALRIDEDEKAGQKEQAVEWYKKGIEELEKGIAVIVTGQGEQCERARRLQAKMMTNLVMAKDRLQLL

Kd: 471 µM
B2: spastin F124D MIT domain, purified (domain or fragment)
chain: B1 chain with F5D

Kd: 10.4 µM
B3: spartin MIT domain (residues 1-107), purified (domain or fragment)
chain: MEQEPQNGEPAEIKIIREAYKKAFLFVNKGLNTDELGQKEEAKNYYKQGIGHLLRGISISSKESEHTGPGWESARQMQQKMKETLQNVRTRLEILEKGLATSLQNDL
